Laboratory results as given in US20230398116A1, “Agent for reversing resistance to anticancer drugs” (Y'S AC CO., LTD., priority 2020, published 2023).

Key:
HCC70 cells = experiment: MTT assay / cell proliferation (confluence) assay, HCC70; type: cell-based, human
Description: (§1) Human and mouse breast cancer cells (1×10^4) were cultured in 10% FCS containing RPMI1640 medium on a 96-well flat bottom plate (Corning, Tewksbury, MA) at 37° C. for 24 hours, and then stimulated with IL-26 for 48 hours in the presence or absence of EGFR-TKI (gefitinib or erlotinib) at various concentrations, a signal inhibitor, and a neutralizing antibody. HUVECs were seeded in a 96-well flat bottom plate at 5×10^3 cells/well in a 2% FBS-containing EGM medium in which growth factors were reduced by half, and cultured at 37° C. for 12 hours. Thereafter, the medium was aspirated, and a recombinant human IL-26 dimer was adjusted to a final concentration of 10 ng/mL in a 2% FBS-containing EGM medium containing no growth factors, and added to the cells. The stimulation was started in the presence or absence of control human IgG and anti-human IL-26 antibodies, and the cells were cultured for 48 hours. Thereafter, a concentration of 20 μl or 1/10 of a 5 mg/ml MTT solution (Tetrazolium monosodium salt, WST-8) was added to each well, and the plate was allowed to stand for 1 hour. The absorbance at 450 nm/595 nm was measured using Microplate Reader (Bio-Rad, Hercules, CA) and data was analyzed with Microplate Manager 6 software (Bio-Rad).
Human and mouse breast cancer cells (1×10^4) were cultured in RPMI1640 medium containing 10% FCS for 24 hours at 37° C. on a 96-well flat bottom plate (Corning), and then stimulated with IL-26 (30 ng/ml) in the presence or absence of various concentrations of gefitinib and a neutralizing antibody. Cell proliferation was measured as cell confluence using IncuCyte ZOOM (Essen Bioscience, Ann Arbor, MI).

EphA3/IL-26 interaction = target: T1, EphA3/IL-26 interaction (Homo sapiens, UniProt Q9NPH9); experiment: Immunofluorescence of rhIL-26-Alexa 488 and cell surface EphA3 on E0771 cells; type: cell-based, mouse; settings: E0771, antibodies 10 μg/ml, FIGS. 19 and 20
T1 construct: purchased R&D Systems; host or cells: IL-26 was purchased; EphA3 is endogenous on E0771 cells
T1 sequence (Q9NPH9 22-171): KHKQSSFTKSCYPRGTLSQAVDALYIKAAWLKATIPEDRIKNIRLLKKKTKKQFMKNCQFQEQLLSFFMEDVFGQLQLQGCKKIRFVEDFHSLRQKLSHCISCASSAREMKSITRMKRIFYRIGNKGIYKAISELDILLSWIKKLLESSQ
Description: (§2) E0771 and HCC70 cells (1×10^5) were cultured for 24 hours in RPMI1640 medium with 10% FCS on Lab-Tek chamber slides (Thermo Fisher Scientific). The cultured cells were stimulated with Alexa Fluor 488 labeled IL-26 (30 ng/ml) in the presence or absence of recombinant human and mouse EphA3-Ig for 1 hour. HCC70 cells were stimulated with IL-26 (30 ng/ml) in the presence or absence of gefitinib (40 μM), a signal inhibitor, and a neutralizing antibody for 24 hours. Subcutaneous tumor samples obtained from mice were fixed in 4% paraformaldehyde (Thermo Fisher Scientific) and embedded in OCT compound (Tissue-Tek (registered trademark), Sakura Finetek, Japan). Cells and slides were immunostained with each antibody and observed using a Zeiss inverted microscope and Axiovision 2.0 program (Carl Zeiss, Germany). The fluorescence intensity was quantified with Image-J software (NIH). The images were captured using a 100×400× objective.

[1] = target: T2, interaction between IL-26 and EphA3 (Homo sapiens, UniProt Q9NPH9); experiment: Immunofluorescence of rhIL-26-Alexa488 and cell surface EphA3 on HCC70 cells; type: cell-based; settings: HCC70, rhIL-26-Alexa488 30 ng/ml, 50 μg/ml each, 1 hour, FIG. 21
T2 construct: purchased R&D Systems; host or cells: IL-26 was purchased; EphA3 is endogenous on HCC70 cells
T2 sequence (Q9NPH9 22-171): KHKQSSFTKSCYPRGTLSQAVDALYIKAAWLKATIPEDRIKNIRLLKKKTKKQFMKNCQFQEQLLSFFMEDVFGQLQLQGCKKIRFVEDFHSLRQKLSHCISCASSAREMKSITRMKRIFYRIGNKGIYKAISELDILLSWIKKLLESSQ
Description: as §2

[2] = Heterogeneous chronic GVHD model (NOG mice transplanted with human umbilical cord blood mononuclear cells); type: in vivo, mouse
Description: On day −1, NOG mice were irradiated with a sublethal dose (100 cGy). On day 0, 5×10^6 human umbilical cord blood mononuclear cells were transplanted from the tail vein of NOG mice. Survival of the mice was assessed daily and body weight was measured twice a week. In an antibody treatment experiment, the control human IgG or anti-human IL-26 monoclonal antibody (the mouse antibody m69-10 and the humanized antibody h69-10A) was administered from day +28 of transplantation when clinical signs/symptoms of mild GVHD began to appear. The antibody solution was adjusted to a concentration of 1 mg/mL with sterile PBS, and 200 μL (200 μg) of the antibody solution per mouse was intraperitoneally injected twice a week. On day +56 after transplantation, the mice were sacrificed, and the skin, lung, liver, and large intestine were collected.
NOG mice were dissected, and then the skin, lung, liver, and large intestine on the back were excised, fixed in 10% formalin solution (Wako) at room temperature, and embedded in paraffin. Thereafter, a section having a thickness of 5 μm was prepared and placed on a glass slide, and stained with hematoxylin and eosin (H&E). In addition, in order to confirm the proliferation of collagen fibers, Azan-Mallory staining was performed. Images of the optical microscope were taken with an Olympus BX41 microscope (OLYMPUS, Tokyo, Japan) connected with an Olympus digital camera DP25, and CellSens software was used.

IL-26 [3] = target: T3, IL-26 (Homo sapiens, UniProt Q9NPH9); experiment: ELISA of antigen binding to human IL-26; set-up: purchased R&D Systems 1375-IL/CF; settings: for EC50 values (binding to human IL-26, ELISA): plates coated with 0.5 μg/ml human IL-26 monomer, calculated using GraphPadPrism
T3 sequence (Q9NPH9 22-171): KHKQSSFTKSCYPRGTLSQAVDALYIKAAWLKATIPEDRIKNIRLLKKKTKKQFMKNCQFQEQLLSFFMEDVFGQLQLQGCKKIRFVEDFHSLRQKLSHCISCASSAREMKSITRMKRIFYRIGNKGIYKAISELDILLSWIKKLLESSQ
Description: The antigen binding of purified Ch69-10-IgG1, Hu69-10A-IgG1, and Hu69-10B-IgG1 was analyzed by ELISA. ELISA plates were coated overnight at 4° C. with the addition of 0.5 μg/ml human IL-26 (recombinant human IL-26/AK155 monomer, Cat #1375-IL/CF, R&D Systems, Minneapolis, MN) at 100 μl/well in 0.2 M sodium carbonate buffer (pH 9.4). Wells were washed with the wash buffer and blocked with the ELISA buffer. Subsequently, 100 μl/well of test antibody (mouse 69-10, Ch69-10-IgG1, Hu69-10A-IgG1, or Hu69-10B-IgG1) serially diluted 2-fold in RPMI medium starting at 5 μg/ml was added to measure a binding with IL-26. After incubation at room temperature for 1 hour and washing the plates with a wash buffer, a 1/2,000-diluted HRP-conjugated goat anti-human kappa chain polyclonal antibody (Bethyl Laboratories) (for Ch69-10-IgG1, Hu69-10A-IgG1 and Hu69-10B-IgG1) or a 1/2,000-diluted HRP-labeled goat anti-mouse kappa chain polyclonal antibody (Bethyl Laboratories) (for mouse 69-10) in ELISA buffer was added at 100 μl/well to detect bound antibodies. After incubation at room temperature for 30 min and washing with the wash buffer, 100 μl/well of ABTS substrate (Sigma Aldrich) was added to start color development and 100 μl/well of 2% oxalic acid was added to stop the color development. The absorbance was measured at 405 nm.

IL-26 [4] = target: T3, IL-26; experiment: ICAM-1 expression analysis of COLO205 (neutralizing activity of IL-26); type: cell-based; set-up: host or cells: added exogenously to COLO205 cells; settings: for inhibition of IL-26-enhanced expression of ICAM-1: COLO205, recombinant human IL-26 monomer 20 ng/mL, 24 hours, flow cytometry (MFI); for inhibitory effect on IL-26 compared with m69-10 (ICAM-1 expression): COLO205, antibody doses of 2 μg/mL and 5 μg/mL
Description: COLO205 was seeded at 5×10^4 cells/well in a 96-well flat bottom plate, and stimulated with recombinant human IL-26 monomer (20 ng/mL) in the presence or absence of control human IgG or anti-human IL-26 antibody. After 24 hours of culture, the cells were collected and washed with ice-cold PBS (FCM buffer) containing 1% FBS and 0.1% sodium azide. Thereafter, a solution prepared by diluting a PE-labeled mouse anti-human ICAM-1 monoclonal antibody (clone 15.2, catalog number 50-0549-T100) of Bay bioscience (Kobe, Japan) or a PE-labeled mouse Igl,k isotype control monoclonal antibody (clone MOPC-21, catalogue number 400114) of BioLegend with FCM buffer to 5 μg/mL, was added at 50 μL/sample, and the mixture was allowed to stand at 4° C. for 25 minutes. Thereafter, the cells were washed with ice-cold FCM buffer, then measured with FACSCalibur, and the obtained data was analyzed with FlowJo.

IL-26 [5] = target: T3, IL-26; experiment: MTT assay of HUVECs stimulated with IL-26 (neutralizing activity of IL-26); type: cell-based; set-up: purchased R&D Systems; host or cells: added exogenously to HUVECs; settings: antibody dose of 3 μg/mL
Description: as §1

[6] = 200 μg per mouse i.p. twice a week from day 28, data not shown

B1: rhEphA3-Ig: recombinant human EphA3 Fc chimeric protein purchased from R&D Systems (protein)
chain: ELIPQPSNEVNLLDSKTIQGELGWISYPSHGWEEISGVDEHYTPIRTYQVCNVMDHSQNNWLRTNWVPRNSAQKIYVELKFTLRDCNSIPLVLGTCKETFNLYYMESDDDHGVKFREHQFTKIDTIAADESFTQMDLGDRILKLNTEIREVGPVNKKGFYLAFQDVGACVALVSVRVYFKKCPFTVKNLAMFPDTVPMDSQSLVEVRGSCVNNSKEEDPPRMYCSTEGEWLVPIGKCSCNAGYEERGFMCQACRPGFYKALDGNMKCAKCPPHSSTQEDGSMNCRCENNYFRADKDPPSMACTRPPSSPRNVISNINETSVILDWSWPLDTGGRKDVTFNIICKKCGWNIKQCEPCSPNVRFLPRQFGLTNTTVTVTDLLAHTNYTFEIDAVNGVSELSSPPRQFAAVSITTNQAAPSPVLTIKKDRTSRNSISLSWQEPEHPNGIILDYEVKYYEKQEQETSYTILRARGTNVTISSLKPDTIYVFQIRARTAAGYGTNSRKFEFETSPDSFSISGESSQ
modifications: left off: a dimerising Fc or GST
notes: recombinant human EphA3 Fc chimeric protein purchased from R&D Systems
blocking of inhibitory effect of IL-26 on suppression of cell proliferation by gefitinib (HCC70 cells; HCC70, IL-26 30 ng/ml, gefitinib 40 μM, 48 hours, Abs or rhEphA3-Ig 50 μg/ml each, MTT, FIG. 22): potently blocked the inhibitory effect of IL-26 on suppression of cell proliferation by gefitinib
inhibition of colocalization of IL-26 with EphA3 (EphA3/IL-26 interaction) (EphA3/IL-26 interaction): inhibited EphA3/IL-26 interaction
inhibition of interaction between IL-26 and EphA3 [1]: clearly inhibited the interaction between IL-26 and EphA3

B2: Hu69-10A-IgG1: humanized 69-10 IgG1/kappa antibody expressed by pHu69-10A (Hu69-10VH1 and Hu69-10VL1) (antibody, V domains shown)
VH: QVTLKESGPALVKPTQTLTLTCTFSGFSLSTSGMGVGWIRQPPGKALEWLAHIWWDDDKYYNPSLKSQLTISKDTSKNQVVLTMTNMDPVDTATYYCVRGGITATHYYAMDYWGQGTTVTVSS
VL: DIQMTQSPSSLSASVGDRVTITCLASQTIGTWLSWYQQKPGKAPKLLIYAATSLADGVPSRFSGSGSGTKFTFTISSLQPEDIATYYCQQLYSSPWTFGGGTKVEIK
reversal of inhibitory effect of IL-26 on gefitinib-induced suppression of cell proliferation (HCC70 cells; HCC70, IL-26 30 ng/ml, gefitinib 40 μM, 48 hours, MTT, FIG. 59): reversed the inhibitory effect of IL-26 on gefitinib-induced suppression of cell proliferation in an antibody dose-dependent manner
inhibitory effect on IL-26 compared with m69-10 (HCC70 proliferation) (HCC70 cells; antibody doses of 5 μg/mL and 20 μg/mL): significantly higher inhibitory effect on IL-26 than the original mouse antibody m69-10
body weight loss [2, 6]: clearly reduced
number of survival days [2, 6]: significantly prolonged
therapeutic effect compared with m69-10 ([2]; FIG. 60): higher therapeutic effect than the original mouse antibody m69-10
EC50 values (binding to human IL-26, ELISA) (IL-26 [3]): 0.304 mg/L
binding to IL-26 (absorption value) (IL-26 [3]; recombinant human IL-26 immobilized on a plate, FIG. 56): stronger binding to IL-26 than an original mouse antibody m69-10
inhibition of IL-26-enhanced expression of ICAM-1 (IL-26 [4]): partially inhibited
inhibitory effect on IL-26 compared with m69-10 (ICAM-1 expression) (IL-26 [4]): significantly higher inhibitory effect on IL-26 than the original mouse antibody m69-10
inhibitory effect on IL-26 compared with m69-10 (HUVEC proliferation) (IL-26 [5]): significantly higher inhibitory effect on IL-26 than the original mouse antibody m69-10

B3: Hu69-10B-IgG1: humanized 69-10 IgG1/kappa antibody expressed by pHu69-10B (Hu69-10VH1 and Hu69-10VL2) (antibody, V domains shown)
VH: QVTLKESGPALVKPTQTLTLTCTFSGFSLSTSGMGVGWIRQPPGKALEWLAHIWWDDDKYYNPSLKSQLTISKDTSKNQVVLTMTNMDPVDTATYYCVRGGITATHYYAMDYWGQGTTVTVSS
VL: DIQMTQSPSSLSASVGDRVTITCLASQTIGTWLSWYQQKPGKAPKLLIYAATSLADGVPSRFSGSGSGTDFTFTISSLQPEDIATYYCQQLYSSPWTFGGGTKVEIK
EC50 values (binding to human IL-26, ELISA) (IL-26 [3]): 0.396 mg/L
inhibition of IL-26-enhanced expression of ICAM-1 (IL-26 [4]): partially inhibited
inhibitory effect on IL-26 compared with m69-10 (ICAM-1 expression) (IL-26 [4]): significantly higher inhibitory effect on IL-26 than the original mouse antibody m69-10
inhibitory effect on IL-26 compared with m69-10 (HUVEC proliferation) (IL-26 [5]): significantly higher inhibitory effect on IL-26 than the original mouse antibody m69-10
